Reference: patent US20070022485, “Method of preparing transgenic organism with use of methylation and system therefor” (Japan Science Techonology Agency, published 2007)

Legend:
[1] = test system: Tc3 transposase (pRP2302) (Caenorhabditis elegans); assay: cell_activity; conditions: 5mC at CpG; gene trap events in mouse ES cells
[2] = biological target: T1, SB transposase N123 (N-terminal 123 aa DNA-binding domain) (Sleeping Beauty (synthetic, …)); assay: EMSA; poly(dI-dC) 1 ug, 25 C, 30 min; conditions: tags: C-terminal His6 (pET21d, E. coli); label: 32P 5'
T1 chain: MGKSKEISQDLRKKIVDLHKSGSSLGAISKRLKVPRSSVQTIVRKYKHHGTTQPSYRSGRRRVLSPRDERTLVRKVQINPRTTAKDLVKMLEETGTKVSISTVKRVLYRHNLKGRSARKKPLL
Method: (§1) This oligonucleotide was first labeled with [γ-³²P]ATP using T4 polynucleotide kinase, and then annealed. DNA fragment of IR/DR-L was digested with HindIII and KpnI for the preparation, and thereafter, the fragment was methylated using SssI methylase or kept unmethylated and then the fragment was treated with an alkaline phosphatase. The digested fragment was extracted using phenol-chloroform, and precipitated with ethanol, and then finally, T4 polynucleotide was used to label with [γ-³²P]ATP. In the presence of poly(dI-dC) (1.0 μg), 0.2 pmol of oligonucleotide probe or 100 pg of IR/DR-L fragment, and 1.0 μl of N123, a nucleoprotein complex was formed in a buffer described previously in Ivics, Z., P. B. Hackett, R. H. Plasterk, and Z. Izsvak. 1997; Cell 91:501-510). After a thirty minute incubation at 25 degrees Celsius, samples were loaded on a 5%-native polyacrylamide gel, and electrophoresed at 150V constant voltage, and in 0.5× Tris-borate-EDTA, 1.5 hours for oligonucleotide probe and 2.5 hours for IR/DR-L fragment. After the gel was dried, the nucleoprotein was visualized by autoradiography.
(§2) In order to clarify the mechanism of transposition which has been enhanced by methylation of CpG, the present inventors have compared the affinity of recombinant SB transposase peptide against the methylated IR/DR and unmethylated IR/DR by EMSA. […]

[3] = biological target: T1, SB transposase N123 (N-terminal 123 aa …); assay: EMSA; shift and competition comparable to unmethylated site; poly(dI-dC) 1 ug, 25 C; conditions: tags: C-terminal His6 (pET21d, E. coli); label: 32P 5'
Method: as §1, §2

Tc3 transposon vector pTc3/SAβ-geo, CpG methylated
binding signal (fold vs unmethylated) [1]: 2

B1: IR/DR-L outer binding site, unmethylated 34 bp (dsDNA)
DNA 1: TACAGTTGAAGTCGGAAGTTTACATACACTTAAG
DNA 2: CTTAAGTGTATGTAAACTTCCGACTTCAACTGTA
binding result [2]: binds

B2: IR/DR-L outer binding site, methylated 34 bp (dsDNA)
DNA 1: B1 DNA 1
DNA 2: B1 DNA 2
modifications: 5mC at the CpG on both strands (n in SEQ:64 and SEQ:65)
binding result [3]: binds
